Patent US8927207B2, “miRNAs as therapeutic targets in cancer” (Research Foundation of State University of New York, priority 2008, dated 2015)
Where two headings read alike, the source gives them in different places.

Assays:
[1] = test system: conserved p53-binding promoter of miR-192; assay: luciferase reporter assay of p53-binding promoter of miR-192; type: cell-based, human; conditions: HCT (wt-p53) cells, 5 μmol/L for 24 hours
Text: Luciferase reporter assay was used to determine the transcriptional activation of conserved p53-binding promoter of miR-192. pGL3-Basic promoterless luciferase reporter plasmid (Promega) was used in this study. Double-stranded DNA oligonucleotides of conserved p53-binding sequence of miR-192 was synthesized and annealed and cloned upstream of firefly luciferase in the pGL3-Basic plasmid (miR-192-pGL3). […] Control vector and miR-192-pGL3 vector were transfected into both HCT-116 (wt-p53) and HCT-116 (null-p53) cells. To further induce p53 expression, transfected HCT-116 (wt-p53) and HCT-116 (null-p53) cells were also treated with 5 μmol/L 5-fluorouracil for 24 hours. The promoter activity of each construct was quantified by dual luciferase assay (Promega) 24 hours after transfection.

U-2 OS cells [2] = assay: WST-1 chemosensitivity to MTX after transfection; type: cell-based; conditions: for IC50: Homo sapiens, U2OS, 72 h
miR-192 = assay: real time qRT-PCR of endogenous mature miR-192 after MTX treatment; type: cell-based, human
Method: Thereafter, the expression of endogenous mature miR-192 was analyzed by real time qRT-PCT analysis using an internal control RNU6B as an internal standard for normalization. The cDNA synthesis was carried out with the High Capacity cDNA synthesis kit (Applied Biosystems) using 10 ng of total RNA as template. The miRNA sequence-specific RT-PCR primers for miR-192 and endogenous control RNU6B were purchased from Ambion. Real-time quantitative reverse transcription-PCR (qRT-PCR) analysis was carried out using Applied Biosystems 7500 Real-Time PCR System. The PCR master mix containing TaqMan 2× Universal PCR Master Mix (No Amperase UNG), 10× TaqMan assay and RT products in 20 μl volume were processed as follows: 95° C. for 10 minutes, and then 95° C. for 15 seconds, 60° C. for 60 seconds for up to 40 cycles (n=3). Signal was collected at the endpoint of every cycle. The gene expression ΔCT values of miRNAs from each sample were calculated by normalizing with internal control RNU6B and relative quantitation values were plotted.

HCT-116(wt-p53) cells = assay: WST-1 chemosensitivity to TDX after transfection; type: cell-based; conditions: Homo sapiens, HCT-116, 72 h
Method: HCT-116 (wt-p53) cells were plated in 96-well plates at 1×10^3 cells/well in triplicate and were transfected with miR-215 precursor, non-specific control miRNA, or siRNA against TS or DHFR in 100 μl of medium. […] To measure viable cells, 10 μl of WST-1 (Roche Applied Science) was added to each well. After 2 hours incubation, absorbance was measured at 450 and 630 nm respectively (n=3). Non-specific control miRNA alone was used as a negative control, and siRNAs incubation with TDX or MTX were used as the positive controls.

TS mRNA = assay: real time qRT-PCR of TS mRNA; type: cell-based; conditions: U-2 OS cells
Method: (§6) Expression levels of TS or DHFR mRNA were analyzed using real time qRT-PCR analysis (FIG. 15).

U-2 OS cells [3] = assay: WST-1 cell proliferation after miR-215 transfection; type: cell-based; conditions: day 5, vs non-specific miRNA control
Method: (§1) miR-215 inhibits cell proliferation of HCT-116(wt-p53) and U-2 OS cells.
(§2) Cell proliferation assays were performed on the transduced cells. HCT-116 (wt-p53), HCT-116 (null-p53), U-2 OS, and MG63 cells were plated in 96-well plates in triplicate at 1 10^3 cells/well after transfection with miR-215 precursor or non-specific control miRNA. Cells were cultured for 24, 48, 72, 96 h. The absorbance at 450 and 630 nm was measured after incubation with 10 μl of WST-1 for 2 h.

p21 = assay: western immunoblot of p21 in HCT-116 (wt-p53) and U-2 OS cells; type: cell-based; conditions: both HCT-116 (wt-p53) and U-2 OS cells, 48 h after transfection
Text: (§3) miR-215 increases the expression of cell cycle control genes p53 and p21. p53 and p21, a downstream target of the p53 pathway of growth control, are reported to block cells at G2 checkpoint mainly through inhibiting activity of Cdc2, the cyclin-dependent kinase that normally drives cells into mitosis, which is the ultimate target of pathways that mediate rapid arrest in G2 in response to DNA damage. To further analyze the mechanism of cell proliferation inhibition by miR-215, we transfected miR-215 precursor into HCT-116 (wt-p53) and U-2 OS cells, and evaluated the levels of cell cycle control genes p53 and p21 by western immunoblot analysis.

p53 = assay: western immunoblot of p53 in HCT-116 (wt-p53) and U-2 OS cells; type: cell-based; conditions: both HCT-116 (wt-p53) and U-2 OS cells, 48 h after transfection
Text: as §3

DHFR mRNA = assay: real time qRT-PCR of DHFR mRNA; type: cell-based; conditions: U-2 OS cells
Method: as §6

3′UTR of TS = assay: pMIR-REPORT dual-luciferase reporter assay; type: cell-based, human; conditions: HCT-116 (wt-p53), 30 hours after transfection, compared to the vector alone
Text: (§4) To confirm whether miR-215 directly targets TS or DHFR, plasmids were constructed containing the fragments of the 3′UTR of TS or DHFR in the downstream region of firefly luciferase. The pMIR-REPORT Luciferase miRNA Expression Reporter Vector (Ambion) was used to determine the targets of miR-215. Double stranded DNA oligonucleotides containing the miR-215 binding sequence (wt-miR-215) or mismatch sequence (mut-miR-215) in 3′UTR of TS or DHFR mRNA and the HindIII and SpeI restriction site overhangs were synthesized (IDT, Coralville, Iowa) and annealed and cloned downstream of firefly luciferase in the pMIR-REPORT plasmid. The sequences of these synthesized oligonucleotides are provided below. The 3′UTR of TS includes two miR-215 binding sites: one is located at 84-104 bp, one is located at 216-236 bp.
(§5) The constructs were transiently transfected into HCT-116 (wt-p53) cells alone (control) or together with miR-215 precursor. […] Thirty hours after transfection, cells were lysated and luciferase activity was measured by the dual-luciferase reporter assay system (Promega, Madison, Wis.) according to the instructions. […]

3′UTR of DHFR = assay: pMIR-REPORT dual-luciferase reporter assay; type: cell-based, human; conditions: HCT-116 (wt-p53), 30 hours after transfection, compared to the vector alone
Text: as §4, §5

U-2 OS cells [4] = assay: cell cycle analysis by flow cytometry; type: cell-based
Method: miR-215 induces G2-arrest in HCT-116 (wt-p53) and U-2 OS cells. To investigate the mechanism by which miR-215 suppressed cell proliferation in HCT-116 (wt-p53) and U-2 OS cells, the impact of miR-215 on cell cycle control was analyzed by flow cytometry at 36 h after transfection. HCT-116 (wt-p53), HCT-116 (null-p53), U-2 OS and MG63 cells were transfected with miR-215 precursor and the non-specific control miRNA described as above. At 36 h after transfection, cells were harvested and resuspended at 0.5-1 10^5 cells/ml in modified Krishan buffer containing 0.1% sodium citrate and 0.3% NP-40 and kept at 4° C. Before analysis by flow cytometry, cells were treated with 0.02 mg/ml RNase H and stained with 0.05 mg/ml propidium iodide (Sigma).

TS = assay: western immunoblot of TS protein after transfection; type: cell-based; conditions: 48 hours after transfection
Method: At 48 h after transfection with miR-215, miR-192 precursors or non-specific control miRNA, the cells were scraped and lysed in RIPA buffer (Sigma). Equal amounts of proteins were resolved by SDS-PAGE on 12% gels by the method of Laemmli, and transferred to polyvinylidene fluoride membranes (BIO-RAD Laboratories). The membranes were then blocked by 5% nonfat milk in TBS-T (Tris-buffered saline and 0.5% Tween-20) at room temperature for 1 h. The primary antibodies used for the analysis included mouse anti-TS mAb (1:400, Millipore), mouse anti-DHFR mAb (1:250, BD Bioscience), mouse anti-p53 mAb (1:1000, DO-1), mouse anti-p21 mAb (1:1000, F-5), and mouse anti-α-tubulin mAb (1:1000, TU-02) purchased from Santa Cruz Biotechnology. Horseradish peroxidase—conjugated antibodies against mouse (1:1000, Santa Cruz Biotechnology) were used as the secondary antibodies. Protein bands were visualized with a chemiluminescence detection system using the Super Signal substrate (BIO-RAD).
At 48 hours after transfection, proteins were extracted from miR-215-transfected cells and from control cells and changes in TS or DHFR protein levels were determined by western immunoblot analysis (FIG. 14).

HCT-116 (wt-p53) cells = assay: WST-1 cell proliferation after miR-215 transfection; type: cell-based, human; conditions: day 5, vs non-specific miRNA control
Method: as §1, §2

Molecule: O=c1[nH]cc(F)c(=O)[nH]1 [5-fluorouracil]
- activation of luciferase expression from miR-192 promoter p53 binding site [1]: further enhanced

Molecule: CN(Cc1cnc2nc(N)nc(N)c2n1)c1ccc(C(=O)N[C@@H](CCC(=O)O)C(=O)O)cc1 [MTX, methotrexate]
- IC50 (U-2 OS cells [2]; read-out: IC50 of MTX, negative control (non-specific control miRNA), 72 hours): 49.7 nM
- IC50 (U-2 OS cells [2]; read-out: IC50 of MTX, positive control (siRNA against DHFR), 72 hours): 37.3 nM
- cells still alive (U-2 OS cells [2]; miR-215 transduced U-2 OS cells at 200 nM of MTX): 83.6%
- expression of endogenous mature miR-192 (miR-192; HCT-116 (null-p53)): did not cause any change
- expression of endogenous mature miR-192 (miR-192; HT-29 (mut-p53)): did not cause any change
- expression of endogenous mature miR-192 (miR-192; cells with p53 induction (wt-p53), RNU6B normalized): significant increase

Molecule: Cc1nc2ccc(CN(C)c3ccc(C(=O)N[C@@H](CCC(=O)O)C(=O)O)s3)cc2c(=O)[nH]1 [TDX, Ralitrexed]
- IC50 (HCT-116(wt-p53) cells; HCT-116(wt-p53) cells transfected with miR-215, 72 hours): 98.7 nM
- IC50 (HCT-116(wt-p53) cells; negative control (non-specific control miRNA), 72 hours): 18.6 nM
- IC50 (HCT-116(wt-p53) cells; positive control (siRNA against TS), 72 hours): 8.5 nM

B1: miR-215: microRNA miR-215 (SEQ ID NO:9), transfected as precursor, 72 bps hairpin stem loop processed by DICER (nucleic acid)
chain: AUCAUUCAGAAAUGGUAUACAGGAAAAUGACCUAUGAAUUGACAGACAAUAUAGCUGAGUUUGUCUGUCAUUUCUUUAGGCCAAUAUUCUGUAUGACUGUGCUACUUCAA
modifications: delivered as precursor hairpin, further chemistry not given here
- TS mRNA expression (TS mRNA): no reduction
- reduction in cell proliferation (OD) (U-2 OS cells [3]): ~58%
- p21 protein level (p21): significant increase
- p53 protein level (p53): significant increase
- DHFR mRNA expression (DHFR mRNA): no reduction
- luciferase activity, TS 3′UTR construct (3′UTR of TS): significant decrease
- luciferase activity, DHFR 3′UTR construct (3′UTR of DHFR): significant decrease
- G2/S ratio (U-2 OS cells [4]; 36 h after transfection (control 0.35)): 0.72
- proportion of cells in the G2-phase (U-2 OS cells [4]; 36 h after transfection (control 18.50%)): 29.69%
- proportion of cells in the S-phase (U-2 OS cells [4]; 36 h after transfection (control 52.08%)): 41.24%
- increase of G2/S ratio (U-2 OS cells [4]; vs control): > 2 fold
- TS protein levels (TS): clearly decreases
- reduction in cell proliferation (OD) (HCT-116 (wt-p53) cells): approximately 40%
